Measured values from publication PMC2806608.

Target: human FcμR on BW5147 T cell transductants (human) (UniProt O60667)
Assay: radioligand binding

UniProt O60667, sequence (O60667 17-390): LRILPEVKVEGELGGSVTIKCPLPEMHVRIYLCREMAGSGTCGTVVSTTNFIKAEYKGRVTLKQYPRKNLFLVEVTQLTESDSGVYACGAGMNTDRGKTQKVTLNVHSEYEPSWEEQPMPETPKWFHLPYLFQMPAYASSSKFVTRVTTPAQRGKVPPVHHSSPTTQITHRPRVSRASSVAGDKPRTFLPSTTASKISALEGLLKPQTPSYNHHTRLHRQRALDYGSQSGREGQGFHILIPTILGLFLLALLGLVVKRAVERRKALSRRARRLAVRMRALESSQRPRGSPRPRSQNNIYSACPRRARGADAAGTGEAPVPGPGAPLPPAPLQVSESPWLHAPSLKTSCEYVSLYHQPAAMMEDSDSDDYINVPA

## ^125I-labeled human IgM myeloma protein (antibody)
  Kd: 0.0108 µM
